In paper PMC11464796:

Target: Msm RNAP core, recombinant (α, ω, β–β′ fusion with C-terminal His8) (Mycobacterium smegmatis) (UniProt A0QSL8)

B1: Msm HelD, wild type, recombinant tag-less (enzyme)
chain: MSGRDYEDELQSERDYVAGLYARLDAERAQSQRRYAAALREHGGTAVERDAEVRALAKDIARLNVADNGLCFGRLDTLDDARLYIGRLGIFDRDNDFEPLLLDWRAPMARPFYVATAANPENMRRRRQFHTLGRKVVDFTDEILGRPTGAEHDATNDAALLAAVNAPRGEGMRDIVATIQAEQDQVIRLDHTGVLVIEGGPGTGKTVVALHRVAYLLYTYRKQMERHGVLVVGPTPAFLDHIGRVLPSLGESDAVFMTPGDFVPGLHVTAEDTPEAAEVKGSLKILDVLKAAVADRQELPSEPIPIDLSDVTMRIDAETAKWARDEARKTGLPHNEARAEFVDVVTYVVTERAVARIGRGWLTRDDKHAWEKMRADVVGELEDHEQFNAALDALWPILTPEDVLAQLYTSHERLRAAGAPECLWRADGEAWTVSDVPLLDELVDLLGRNKAADEAAERERREEEAYAAGVLDLMVDREDLMDDEDHLLAQDLIDAEELADRFKEQDNRELSERAAADREWTYGHVVVDEAQELSEMDWRLLMRRCPRRSFTIVGDLAQRRSPAGARSWGAMLDSYVPGRWVYKSLSVNYRTPAEIMAVAAAVLAEFAPDATPPDSVRACGVAPWARQVTDDDIASAIAEFVSEEAGREGTSVVIGPPDVPGTVPPSETKGLEFDAVLVVEPERILADGPRGAAELYVALTRATQRLGVLYRDALPQALAGLAEGDAAATVEQRTSA
  ATPase activity of the HelD–core and HelD–holoenzyme complexes against free HelD: 2.5 fold
